Experimental data taken from patent US20020197661.

Target: T1, Acetyl-Prolyl-Arginyl-Asparaginyl-Lysyl-aminoacetamide coumarin (Ac-PRNK-ACC)
T1 chain: PRNK

B1: bovine factor Xa protease (Promega) (protein)
chain: ANSFLEEVKQGNLERECLEEACSLEEAREVFEDAEQTDEFWSKYKDGDQCEGHPCLNQGHCKDGIGDYTCTCAEGFEGKNCEFSTREICSLDNGGCDQFCREERSEVRCSCAHGYVLGDDSKSCVSTERFPCGKFTQGRSRRWAIHTSEDALDASELEHYDPADLSPTESSLDLLGLNRTEPSAGEDGSQVVRIVGGRDCAEGECPWQALLVNEENEGFCGGTILNEFYVLTAAHCLHQAKRFTVRVGDRNTEQEEGNEMAHEVEMTVKHSRFVKETYDFDIAVLRLKTPIRFRRNVAPACLPEKDWAEATLMTQKTGIVSGFGRTHEKGRLSSTLKMLEVPYVDRSTCKLSSSFTITPNMFCAGYDTQPEDACQGDSGGPHVTRFKDTYFVTGIVSWGEGCARKGKFGVYTKVSNFLKWIDKIMKARAGAAGSRGHSEAPATWTVPPPLPL
Q: Which “cleavage of the fluorogenic substrate (fluorescence, excitation 355 nm, emission 460 nm)” value does the source give for B1 here?
A: Its value is “Ac-PRNK-ACC (SEQ. ID. NO: 12) is a specific substrate for tryptase in relation to other blood borne serine proteases”.
